4 substances from EP0835662A2 can be followed below.

Assay [1] concerns the target receptor with a moderately high affinity for Substance P on primary tumor cells of human colon adenocarcinoma (human). As to the kind of experiment: 125I-Substance P receptor-ligand assay on cells, Scatchard (LIGAND); culture PTC-6.
Assay [2] shares this target. Briefly: 125I-Substance P receptor-ligand assay on cells, Scatchard (LIGAND); culture PTC-5.
For assay [3] the target is unchanged. Briefly: 125I-Substance P receptor-ligand assay on cells, Scatchard (LIGAND); culture PTC-1.
Assay [4] shares this target. Briefly: 125I-Substance P receptor-ligand assay on cells, Scatchard (LIGAND); culture PTC-2.
Assay [5] has the same target. As to the kind of experiment: 125I-Substance P receptor-ligand assay on cells, Scatchard (LIGAND); culture PTC-3.
Assay [6] shares this target. Briefly: 125I-Substance P receptor-ligand assay on cells, Scatchard (LIGAND); culture PTC-7.
For assay [7] the target is unchanged. As to the kind of experiment: 125I-Substance P receptor-ligand assay on cells, Scatchard (LIGAND); culture PTC-8.
Assay [8] has the same target. Briefly: 125I-Substance P receptor-ligand assay on cells, Scatchard (LIGAND); culture PTC-4.
The target in assay [9] is high-affinity receptor for bombesin on primary tumor cells of human colon adenocarcinoma (human). Briefly: 125I-bombesin receptor-ligand assay on cells, Scatchard (LIGAND); culture PTC-5.
The target is the same in assay [10]. Briefly: 125I-bombesin receptor-ligand assay on cells, Scatchard (LIGAND); culture PTC-8.
Assay [11] shares this target. Briefly: 125I-bombesin receptor-ligand assay on cells, Scatchard (LIGAND); culture PTC-7.
Assay [12] has the same target. Briefly: 125I-bombesin receptor-ligand assay on cells, Scatchard (LIGAND); culture PTC-1.
The target is the same in assay [13]. As to the kind of experiment: 125I-bombesin receptor-ligand assay on cells, Scatchard (LIGAND); culture PTC-6.
Assay [14] shares this target. As to the kind of experiment: 125I-bombesin receptor-ligand assay on cells, Scatchard (LIGAND); culture PTC-4.
Assay [15] shares this target. As to the kind of experiment: 125I-bombesin receptor-ligand assay on cells, Scatchard (LIGAND); culture PTC-3.
Assay [16] shares this target. As to the kind of experiment: 125I-bombesin receptor-ligand assay on cells, Scatchard (LIGAND); culture PTC-2.
The target of assay [17] is high-affinity receptor for somatostatin on primary tumor cells of human colon adenocarcinoma (human). As to the kind of experiment: 125I-somatostatin receptor-ligand assay on cells, Scatchard (LIGAND); culture PTC-6.
The target in assay [18] is receptor with a moderately high affinity for somatostatin on primary tumor cells of human colon adenocarcinoma (human). Described as above.
For assay [19], the target named is high-affinity receptor for somatostatin on primary tumor cells of human colon adenocarcinoma (human). As to the kind of experiment: 125I-somatostatin receptor-ligand assay on cells, Scatchard (LIGAND); culture PTC-4.
Assay [20] concerns the target receptor with a moderately high affinity for somatostatin on primary tumor cells of human colon adenocarcinoma (human). The assay is described as above.
Assay [21] has as its target high-affinity receptor for somatostatin on primary tumor cells of human colon adenocarcinoma (human). As to the kind of experiment: 125I-somatostatin receptor-ligand assay on cells, Scatchard (LIGAND); culture PTC-2.
Assay [22] concerns the target receptor with a moderately high affinity for somatostatin on primary tumor cells of human colon adenocarcinoma (human). The description is as above.
Assay [23] concerns the target high-affinity receptor for somatostatin on primary tumor cells of human colon adenocarcinoma (human). As to the kind of experiment: 125I-somatostatin receptor-ligand assay on cells, Scatchard (LIGAND); culture PTC-8.
For assay [24], the target named is receptor with a moderately high affinity for somatostatin on primary tumor cells of human colon adenocarcinoma (human). The description is as above.
The target of assay [25] is high-affinity receptor for somatostatin on primary tumor cells of human colon adenocarcinoma (human). As to the kind of experiment: 125I-somatostatin receptor-ligand assay on cells, Scatchard (LIGAND); culture PTC-3.
In assay [26] the target is receptor with a moderately high affinity for somatostatin on primary tumor cells of human colon adenocarcinoma (human). The assay is described as above.
The target in assay [27] is high-affinity receptor for somatostatin on primary tumor cells of human colon adenocarcinoma (human). As to the kind of experiment: 125I-somatostatin receptor-ligand assay on cells, Scatchard (LIGAND); culture PTC-5.
The target in assay [28] is receptor with a moderately high affinity for somatostatin on primary tumor cells of human colon adenocarcinoma (human). Described as above.
The target in assay [29] is high-affinity receptor for somatostatin on primary tumor cells of human colon adenocarcinoma (human). Briefly: 125I-somatostatin receptor-ligand assay on cells, Scatchard (LIGAND); culture PTC-7.
Assay [30] addresses receptor with a moderately high affinity for somatostatin on primary tumor cells of human colon adenocarcinoma (human). The assay is described as above.
Assay [31] deals with high-affinity receptor for somatostatin on primary tumor cells of human colon adenocarcinoma (human). As to the kind of experiment: 125I-somatostatin receptor-ligand assay on cells, Scatchard (LIGAND); culture PTC-1.
Assay [32] addresses receptor with a moderately high affinity for somatostatin on primary tumor cells of human colon adenocarcinoma (human). Described as above.
In assay [33] the target is receptor with a moderately high affinity for VIP on primary tumor cells of human colon adenocarcinoma (human). As to the kind of experiment: 125I-VIP receptor-ligand assay on cells, Scatchard (LIGAND); culture PTC-7.
Assay [34] has as its target high-affinity receptor for VIP on primary tumor cells of human colon adenocarcinoma (human). Described as above.
In assay [35] the target is receptor with a moderately high affinity for VIP on primary tumor cells of human colon adenocarcinoma (human). Briefly: 125I-VIP receptor-ligand assay on cells, Scatchard (LIGAND); culture PTC-3.
Assay [36] deals with high-affinity receptor for VIP on primary tumor cells of human colon adenocarcinoma (human). Described as above.
For assay [37], the target named is receptor with a moderately high affinity for VIP on primary tumor cells of human colon adenocarcinoma (human). Briefly: 125I-VIP receptor-ligand assay on cells, Scatchard (LIGAND); culture PTC-6.
Assay [38] addresses high-affinity receptor for VIP on primary tumor cells of human colon adenocarcinoma (human). The assay is described as above.
The target in assay [39] is receptor with a moderately high affinity for VIP on primary tumor cells of human colon adenocarcinoma (human). As to the kind of experiment: 125I-VIP receptor-ligand assay on cells, Scatchard (LIGAND); culture PTC-4.
Assay [40] concerns the target high-affinity receptor for VIP on primary tumor cells of human colon adenocarcinoma (human). The assay is described as above.
The target in assay [41] is receptor with a moderately high affinity for VIP on primary tumor cells of human colon adenocarcinoma (human). Briefly: 125I-VIP receptor-ligand assay on cells, Scatchard (LIGAND); culture PTC-5.
Assay [42] addresses high-affinity receptor for VIP on primary tumor cells of human colon adenocarcinoma (human). Described as above.
Assay [43] addresses receptor with a moderately high affinity for VIP on primary tumor cells of human colon adenocarcinoma (human). Briefly: 125I-VIP receptor-ligand assay on cells, Scatchard (LIGAND); culture PTC-1.
Assay [44] concerns the target high-affinity receptor for VIP on primary tumor cells of human colon adenocarcinoma (human). The description is as above.
In assay [45] the target is receptor with a moderately high affinity for VIP on primary tumor cells of human colon adenocarcinoma (human). Briefly: 125I-VIP receptor-ligand assay on cells, Scatchard (LIGAND); culture PTC-2.
For assay [46], the target named is high-affinity receptor for VIP on primary tumor cells of human colon adenocarcinoma (human). The assay is described as above.
Assay [47] has as its target receptor with a moderately high affinity for VIP on primary tumor cells of human colon adenocarcinoma (human). As to the kind of experiment: 125I-VIP receptor-ligand assay on cells, Scatchard (LIGAND); culture PTC-8.
Assay [48] has as its target high-affinity receptor for VIP on primary tumor cells of human colon adenocarcinoma (human). Described as above.

As usually defined, the Kd is the equilibrium constant for the complex coming apart. “Substance P (from UniProt P20366 58-68) (peptide)”: the dissociation constant Kd amounted to 234 nM in assay [1]; 21 nM in assay [2]; 154 nM in assay [3]; 172 nM in [4]; 134 nM in [5]; 26.2 nM in assay [6]. Further, the Kd is 186 nM in assay [7] and 154 nM in [8]. For the same substance, the R(M/L) receptor number in assay [1] was 2.95e-08 M/L; in [2], 6.2e-09 M/L; in assay [3], 1.85e-08 M/L; in assay [4], 1.71e-08 M/L; in assay [5], 1.49e-08 M/L; in [6], 7.48e-09 M/L. Further, the results for the R(M/L) receptor number in assay [7] and in [8] were 1.32e-08 M/L and 1.66e-08 M/L, respectively.

Take bombesin (peptide): the Kd stood at 0.462 nM in assay [9]; 0.883 nM in assay [10]; 0.67 nM in [11]; 0.439 nM in assay [12]; 0.485 nM in assay [13]; 0.568 nM in assay [14]. The dissociation constant Kd in [15] is 0.569 nM; in assay [16], 0.593 nM. Also, the R(M/L) receptor number in [9] came out at 3.35e-10 M/L; in [10] it was 2.85e-10 M/L; in assay [11] it was 2.55e-10 M/L; in assay [12], 2.24e-10 M/L; in [13], 2.24e-10 M/L; in assay [14] it was 2.89e-10 M/L. Moreover, the R(M/L) receptor number in [15] was determined as 2.97e-10 M/L; in assay [16] it was 3.22e-10 M/L.

On to “somatostatin (from UniProt P61278 103-116) (peptide)”, for which the Kd in [17] worked out at 0.545 nM; in assay [19], 0.0865 nM; in assay [20] it was 56.4 nM; in assay [21], 0.17 nM; in [22], 63.5 nM; in assay [23], 0.964 nM. Besides, the Kd in assay [24] amounted to 99.2 nM; in assay [25], 1.15 nM; in assay [26], 134 nM; in assay [27], 0.378 nM; in [28], 15.4 nM; in assay [29], 1.11 nM. For the same substance, the figures for the equilibrium dissociation constant (Kd) in [30], in assay [31] and in assay [32] were 128 nM, 0.323 nM and 93.7 nM, respectively. The R(M/L) receptor number worked out at 6.85e-11 M/L in assay [17]; 1.16e-09 M/L in [18]; 4.66e-11 M/L in assay [19]; 2.75e-09 M/L in assay [20]; 8.99e-11 M/L in [21]; 2.24e-09 M/L in assay [22]. Further, the R(M/L) receptor number stood at 1.74e-10 M/L in [23]; 6.59e-09 M/L in assay [24]; 1.06e-10 M/L in [25]; 5.09e-09 M/L in assay [26]; 5.82e-11 M/L in [27]; 1.24e-09 M/L in assay [28]. Besides, the R(M/L) receptor number in [29] turned out to be 9.81e-11 M/L; in [30], 3.89e-09 M/L; in assay [31], 6.01e-11 M/L; in assay [32], 4.41e-09 M/L.

With “vasoactive intestinal peptide (VIP) (from UniProt P01282 125-152)”, the dissociation constant Kd in assay [33] came out at 555 nM; in assay [34] it was 1.49 nM; in assay [35], 1510 nM; in assay [36] it was 6.35 nM; in [37], 1880 nM; in assay [38] it was 4.41 nM. Further, the Kd came to 945 nM in assay [39]; 11 nM in assay [40]; 3510 nM in [41]; 19.5 nM in [42]; 633 nM in [43]; 1.04 nM in assay [44]. For the same substance, the Kd in [45] worked out at 423 nM; in assay [46], 1.45 nM; in assay [47], 8420 nM; in [48] it was 1.78 nM. Besides, the R(M/L) receptor number is 9.37e-09 M/L in assay [33]; 6.12e-11 M/L in assay [34]; 2.93e-08 M/L in assay [35]; 2.45e-10 M/L in assay [36]; 3.21e-08 M/L in [37]; 1.05e-10 M/L in assay [38]. For the same substance, the R(M/L) receptor number amounted to 5.03e-08 M/L in assay [39]; 2.75e-10 M/L in assay [40]; 8.72e-08 M/L in assay [41]; 5.29e-10 M/L in assay [42]; 1.78e-08 M/L in assay [43]; 4.83e-11 M/L in [44]. Moreover, the R(M/L) receptor number came to 1.03e-08 M/L in assay [45], 6.23e-11 M/L in assay [46], 8.49e-09 M/L in [47] and 1.5e-10 M/L in [48].
